Experimental data: patent US20070287163A1 (CRUCELL HOLLAND B V, published 2007)

Target: T1, CD46 (human (HEp-2 cells), UniProt P15529)
T1 construct: endogenous, cell-surface biotinylated, solubilised in Triton X-100 lysate; The bands in the CR2300 lane were not separately identified
T1 sequence (antigen, looked up): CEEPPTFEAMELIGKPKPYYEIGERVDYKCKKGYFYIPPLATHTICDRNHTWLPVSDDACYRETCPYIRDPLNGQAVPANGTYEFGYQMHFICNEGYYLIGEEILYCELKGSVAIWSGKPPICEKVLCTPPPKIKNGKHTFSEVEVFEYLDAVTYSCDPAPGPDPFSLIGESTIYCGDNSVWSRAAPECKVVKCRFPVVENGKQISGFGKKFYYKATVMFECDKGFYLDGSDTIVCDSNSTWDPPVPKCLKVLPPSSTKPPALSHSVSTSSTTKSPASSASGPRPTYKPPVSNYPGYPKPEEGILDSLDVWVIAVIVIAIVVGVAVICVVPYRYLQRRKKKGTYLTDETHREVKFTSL
Test: immunoprecipitation from surface-biotinylated HEp-2 lysate, streptavidin-HRP blot
Description: To identify whether CR2407 reacted with a membrane extractable antigen, the cell surface of 10⁸ HEp-2 cells were biotinylated during 1 hour at room temperature with a final concentration of 2 mg sulfo-NHS-LC-LC-biotin in physiological buffer (0.2 M phosphate buffer containing 0.12 M NaCl, pH 7.4). Subsequently, the remaining free biotin was blocked during an incubation of 30 minutes at room temperature with 10 mM glycine in physiological buffer. After labeling, the cells were washed with cold physiological buffer and solubilized for 30 minutes on ice at a concentration of 3×10⁷ cells/ml in TX-100 lysis buffer (1% Triton X-100, 150 mM NaCl, 50 mM Tris pH 7.4, protease inhibitors (Roche)). The unsoluble material was removed by centrifugation for 30 minutes at 4° C. at 20,000*g.
Hereafter, the biotinylated solubilized lysates were pre-cleared with protein-A beads for 2 hours at 4° C. 4 μg of CR2407 and the negative control antibody CR2428 and positive control antibody CR2300 (directed against CD46) were coupled to protein A beads at room temperature. Next, the pre-cleared samples were incubated with the above IgG's coupled to protein-A beads for 2 hours at 4° C. […] After blotting on PVDF membranes, the biotinylated proteins were detected with streptavidin-HRP (Amersham) and enhanced chemoluminescence (Amersham).

B1: CR2407 IgG1 (antibody, V domains shown)
VH: EVQLVESGGGLVQPGGSLRLSCAASGFTFSSYAMSWVRQAPGKGLEWVSAISGSGGSTYYADSVKGRFTISRDNSKDTLYLQMSSLKTEDTAVYYCARGSLLQFWGQGTLVTVSS
VL: SSELTQDPAVSVALGQTVRITCQGDSLRSYYASWYQQKPGQAPVLVIYGKNNRPSGIPDRFSGSSSGNTASLTITGAQAEDEADYYCNSRDSSGNHVVFGGGTKLTVLG
notes: also called anti-ALCAM IgG1
B1: no binding (tested: 4 ug IgG on protein-A beads).
